Laboratory results from the supplement of paper PMC10567573.

B1: ATE1 (parent)
chain: YGSFHQQYWLDGKIIAVGVIDILP

Variants of: B1
Experiment: protein stability index of a GFP-peptide fusion (GPS, HEK-293T) (PSI 1-6); higher = more stable
Conditions: c terminus: a fixed tail appended
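Also: lentivirally expressed fusions sorted by FACS into six bins by GFP to DsRed ratio, PSI derived from sequencing read proportions per bin multiplied by bin number.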

Protein stability index: each site, then its substitutions
G18: Q 3.22, E 2.28, K 3.6, S 3.06, C 4.11, R 3.77, L 1.9, F 2.53, A 3.13, T 4.01, W 2.81, I 3.47, Y 1.96, N 2.31, P 2.39
L10: M 2.16, D 2.64, V 3.17, Y 1.97, E 2.75, S 3.74, K 3.17, N 3.14, H 2.42, T 1.74, W 2.66, C 2.9, I 3.3, R 2.32, Q 3.96, P 3.12
I15: E 3.12, H 3.57, V 4.05, T 3.23, N 2.59, F 2.83, C 1.53, S 2.5, A 2.57, L 2.75, G 3.26, D 2.53, Y 2.45, M 2.51, R 1.91, K 1.79
I14: C 2.81, T 2.75, E 2.66, N 4.29, P 2.95, S 1.85, M 4.33, G 2.26, A 3.24, W 2.62, K 2.41, Y 1.49, Q 2.72
A16: P 2.38, S 1.87, V 3.31, G 2.13, M 2, C 1.6, F 2.21, R 3.32, T 2.7, Q 3.07, Y 2.13
W9: Q 1.69, V 3.47, N 1.9, K 3.09, S 2.48, R 3.46, L 3.27, M 1.98, P 3.09, Y 2.97, I 3.29
I20: Y 1.81, E 1.65, A 3.4, M 2.59, F 4.08, D 2.41, C 1.22, S 2.38, R 2.48, W 1.38, L 3.46, P 2.53
V19: Y 2.91, P 3.09, F 3.06, E 1.71, D 3.87, A 2.67, W 2.06, Q 2.97, I 2.64, L 2.41, C 2.56, R 2.92, T 2.49, K 1.77, S 2.97, M 2.91
D11: T 3.15, F 3.33, I 2.1, N 3.47, W 2.72, P 2.24, S 2.47, V 2.38, A 4.43, G 1.06, H 2.8, K 3.39
G12: K 2.14, Q 2.45, C 2.02, A 2.54, V 2.04, T 3.42, R 3.98, D 2.68, S 1.91, I 3.89, N 2.45
D21: C 3.23, N 2.85, F 4.18, E 3.01, M 1.81, I 2.97
K13: M 3.74, L 3.1, V 2.63, D 2.19, C 2.44, W 1.94, R 2, N 2.78, E 2.45, P 2.99, A 2.3, T 2.54, I 1.1, F 2.76
V17: N 2.82, F 4.21, D 2.26, W 3, Y 2.91, H 3.08, C 3.27, M 3.42, L 2.42, R 3.21, A 3.66, T 3.29, P 1.66, I 1.95
